A short description of this series: yeast display, Sf9 membrane polyspecificity reagent, FACS + sequencing; frameworks hold sequencing errors. The procedure, abridged:
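Genes from sorted yeast were amplified by colony PCR, read by MiSeq 2 × 250 sequencing and filtered on CDR length. These cells carried a synthetic nanobody library in Saccharomyces cerevisiae BJ5465 and were sorted by FACS into low and high (top ~1%) gates on anti-HA and streptavidin fluorescence. Polyreactivity is labelled according to the gate of origin.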
With “QVHLVESGGGLVQAGGSLRLSCAASGSIFTVYTMGWYRQAHGKERELVAAINSRGGTTYYADSVKGRFTISRDYAKNTVYLQMNSLKPEDTAVYYCAAKQRPKSYGPVHYYWGQGTQVTVSS”, the “polyreactivity (PSR sort gate)” value is listed as “high polyreactivity”.

Turning to “QVHLVESGGGLVQAGGSLRLSCAASGSIFVHYAMGWYRQAPGKERELVATISSSGGSTYYADSVKGRFTISRDNAKNTVYLQMKSLKPEDTAVYYCAADWTLDPSYGYYADDYWGQGTQVTVSS”, the “polyreactivity (PSR sort gate)” value is given as “low polyreactivity”.

As to “QVHLVESGGGLVQAGGSLRLSCAASGSIFWANAMGWYSQAPGKERELVAAINFRATITYYADSVKGRFTISRDIAKNTFYLQMISLKPEDTAVYYCAGDSYECWYDYWGQGTEVTVSS”, the “polyreactivity (PSR sort gate)” value is on record as “high polyreactivity”.

As for “QVHLVESGGGLVQAGGSLRLSCAASGSIFYGNAMGWDRQATGKERELVAGISWYGGSTYYADSVKGRFTISRDNAKNTVYLQMNSLKPEDTAVYYCATVADEPRSYSGYEEYDYWGQGTQVTVSS”, the “polyreactivity (PSR sort gate)” value is recorded as “low polyreactivity”.

On to “QVHLVESGGGLVQAGGSLRLSCAASGSIFYRNAMGWYRPAPGKERELVAAISSDGSTNYADSVKGRFTISRDNEKNTVYLQMNSLKPEDTAVYYCAAPWTQILDYWGQGNQVTVSS”, for which the “polyreactivity (PSR sort gate)” value was “low polyreactivity”.

On to “QVHLVESGGGLVQAGGSLRLSCAASGSIFYSNAMGWYRQAPGKERELVAAITRGGSTHYADSVKGRFTISRDNAKNTVYLQMNSLKPEDTAVYYCNKDLNFAKYISSILYDYWGQGTQVSVSS”, for which the “polyreactivity (PSR sort gate)” value is “low polyreactivity”.

“QVHLVESGGGLVQAGGSLRLSCAASGSIFYYNTMGWYRQAPGKERELVAGISWGGGRTYYADSVKGRFTISRDNAKNTVYLQMNSLKPEDTAVYYCNARHRRLPSNGGYDYWGKGTQVTVSS”: the “polyreactivity (PSR sort gate)” value was “high polyreactivity”.

Turning to “QVHLVESGGGLVQAGGSLRLSCAASGSIIKYYAIGWYRQAPGKERELVAAISWRGGRTYADSVKGRFTISRDNAKNTVYIQMNSLKPEDTAVYYCATSSRYRYWHRYDYWGQGTQVTVSS”, the “polyreactivity (PSR sort gate)” value is on record as “high polyreactivity”.

Consider “QVHLVESGGGLVQAGGSLRLSCAASGSILLINAMGWYRQAPGKERELVAAIRTGGSTYYADSVKGRFTISRDNAKNTVSLQMNSLKPEDTAVYYCAVRTGRRWWKFDYWGQGTQVTVSS”, for which the “polyreactivity (PSR sort gate)” value is given as “low polyreactivity”.

“QVHLVESGGGLVQAGGSLRLSCAASGSILPFNAMGWYRQAPGKDRELVAAIDGSGGDTYYADSVKGRFTISRDNAKNTVYLHMNSLKPEDTAVYYCAAEYYYTSQLAKYHYGYEYWGQGTQVTVSS”: the “polyreactivity (PSR sort gate)” value is listed as “high polyreactivity”.

Turning to “QVHLVESGGGLVQAGGSLRLSCAASGSILQRNAMGWYRQAPGKERELVASITFSAGRTYYADSVKGRFTISRDNAKNTVYLQMKSLKPEDTAVYYCAADPYSYGARGARGDYWGQGTQVSVSS”, the “polyreactivity (PSR sort gate)” value is listed as “low polyreactivity”.

As for “QVHLVESGGGLVQAGGSLRLSCAASGSISGLYAMGWYRQAPGKETELVAAISFSAGSTYYADSVKGRFTISRDNAKNTVYFQMNSLKPEDTAVYYCAADGQYGGVPNTSEWTFDYWGQGTQVTVSS”, the “polyreactivity (PSR sort gate)” value was “low polyreactivity”.

Take “QVHLVESGGGLVQAGGSLRLSCAASGSISVWYVIVWYRQAPGKERELVAAITRSGGSTFYADSVKGRFTISRDNAKNTVYLQMNSLKPEDTAVYYCAASFRDDFPQRLDYWGQGTQVTVSS”: the “polyreactivity (PSR sort gate)” value is “low polyreactivity”.

Consider “QVHLVESGGGLVQAGGSLRLSCAASGSLSVRNVMGWYSQAPGKERELVATIRRSGGSTSYADSVKGRFTISRDNSKNSVYLQMNSLKPEDTAVYYCAAVVYTTYRRYDYWGQGTQVNVSS”, for which the “polyreactivity (PSR sort gate)” value is recorded as “low polyreactivity”.

For “QVHLVESGGGLVQAGGSLRLSCAASGSNFKGNAMGWYRQAPGKERELVAAINRSGTSTYYADSVKGRFTISRDNAKKTVYLQMNSLKPEDTAVYYCAKKYFGHRFDYWGQGTQVTVSS”, the “polyreactivity (PSR sort gate)” value is given as “high polyreactivity”.

As for “QVHLVESGGGLVQAGGSLRLSCAASGSTFGYNAMGWYRQAPGKVWELVAVISYSGGSPYYADSVKGRFTLSRDNAKNTVSLQMNSLKPADTAVYYCAKRALTSTRYRVKYDSWGQGTQVTVAS”, the “polyreactivity (PSR sort gate)” value is reported as “high polyreactivity”.

“QVHLVESGGGLVQAGGSLRLSCAASGSTFLGYAMGWYRQAPGKERELVAAISWSGGTTYYADSVKGRFTISRDNAKNTVYFQMISQKPEDTAVYYCNVYTRGRYEYWGQGTQVTVSS”: the “polyreactivity (PSR sort gate)” value is “low polyreactivity”.

Regarding “QVHLVESGGGLVQAGGSLRLSCAASGSTFPVNAMGWYRQAPGKERELVAAIRSSTGRTYYADSVKGRFTISRDNAKNSVYLQMNSLKPEDTAVYNFAAEGDYYDFISPPLDYWGQGTQVTVSS”, the “polyreactivity (PSR sort gate)” value is on record as “low polyreactivity”.

In the case of “QVHLVESGGGLVQAGGSLRLSCAASGSTFRRYARAWYRQAPGKERELVAAITWRGGSTYYADSVKGRFTISRDNAKNTVYLQMNSLKPEDNAVYYCAADRYPYQYNYWGQGTLVTVSS”, the “polyreactivity (PSR sort gate)” value is on record as “high polyreactivity”.

As for “QVHLVESGGGLVQAGGSLRLSCAASGSTFRVYAMGWYRQAPGKERELVARISITGGTTRYADSVKGRFTISRDNAKNTVYLQMNSLKPEDTAVYYCNADYDWYYWYLYKYPFDYWGQGTQVTVSS”, the “polyreactivity (PSR sort gate)” value is recorded as “low polyreactivity”.

In the case of “QVHLVESGGGLVQAGGSLRLSCAASGSTFSGYAMGWYRQAPGKERELVATITRRGGNTYYADSLKGRFTISRDNAKNTVYLQMNSLKPEDTAVYYCAKDGRVHSPYDYWGQGTQVTVSS”, the “polyreactivity (PSR sort gate)” value is given as “low polyreactivity”.

“QVHLVESGGGLVQAGGSLRLSCAASGSTFVGYAMGWYRQAPGKERELVAAISGGDSTYYADSVKGRFTISRDNAKNTVYLQMNSLKPEDTAVYYCNADYGDTFEYDYWGQGTQVTVSS”: the “polyreactivity (PSR sort gate)” value is recorded as “low polyreactivity”.

Turning to “QVHLVESGGGLVQAGGSLRLSCAASGSTFYTYVMGWYRQAPGKERELVAAISEDDGNTYYADSVKGRFTISRDNAKNTVYLQMNSLKPEDTAVYYCAADWEDDLAYSAYDYWGQGTQVTVSS”, the “polyreactivity (PSR sort gate)” value was “high polyreactivity”.

With “QVHLVESGGGLVQAGGSLRLSCAASGSTLYTYGMGWYRQAPGKERELVASISWRAARTYYADSVKGRFTISRDNAKNTVYLQMNSLKPEDTAVYYCNADYYIAPYDSWGQGTQVTVSP”, the “polyreactivity (PSR sort gate)” value was “low polyreactivity”.

Take “QVHLVESGGGLVQAGGSLRLSCAASGYIFDIYAMGWYRQAPGKERELVAVITRSGGGTYYADSVKGRFTISRDNAKNTVYLQMNSLKPEDTAVYYCAAESYVYGGSDYDYWGQGTQVTVSS”: the “polyreactivity (PSR sort gate)” value is on record as “low polyreactivity”.

Turning to “QVHLVESGGGLVQAGGSLRLSCAASGYIFQYYAMGWSRQAPGKERELVAAITGGGSTKYADSVKGRFTISRDNAKNTVYLHMNSLKPEDTAVYYCAASLWYRISKYDYWGLGTQVTVSS”, the “polyreactivity (PSR sort gate)” value is given as “high polyreactivity”.

With “QVHLVESGGGLVQAGGSLRLSCAASGYTDYAMGWYRKAPGKERELVATITSGDNTNYADSVKGRFTSSRDNAKNTVYLQMNSLKAEDTAVYYCAAVYGLHYGIDYWGQGTQVNVSS”, the “polyreactivity (PSR sort gate)” value is reported as “low polyreactivity”.

With “QVHLVESGGGLVQAGGSLRLSCAATGRTFIIYTMAWYRQAPGKESEFVAAITRSGGGTYYADSVKGRFTISRDNAKNTVYLQMNSQKPEDTAVYYCAAVRFYDQAYDYWGQGTQVTVSS”, the “polyreactivity (PSR sort gate)” value is listed as “low polyreactivity”.

Take “QVHLVESGGGLVQAGGSLRLSCAAYGRSFSSNAMGWYGQAPGKERELVAAISSSGAGTYYADSVKGRFTISRDNAKNTVYLQMNRLKPEDTAVYYCAARANSYHSFTSHYDYWGQGTQVTLSS”: the “polyreactivity (PSR sort gate)” value is “low polyreactivity”.

As for “QVHLVESGGGLVQAGGSLRLSCADSGRIFYQYAMGWYRQQPGKESELVARITSGGGTNYADSVKGRFSISRDNAKYTVYLQMNSLKPEDTAVYYCAAGPWYYSYPDYYWGQGTQVTVSS”, the “polyreactivity (PSR sort gate)” value is reported as “high polyreactivity”.

On to “QVHLVESGGGLVQAGGSLRLSCADYGRTFSRYAMGWYRQAPGKERELVATINSRAGITNYPDTVKGRFTISRDNAKNTVYLQMTSLKPEDTAVYYCNRGRPGGPSWYHFDYWGQGSQVTVSS”, for which the “polyreactivity (PSR sort gate)” value is given as “high polyreactivity”.

Regarding “QVHLVESGGGLVQAGGSLRLSCASSGGTFPPNTMGWYRQAPGKEREFVAAITWRGSSTYYADSVKGRFTISRDNAKITFFLQMNSLKPEDSAVDYCAARRAYERMGFWGQGTQVTVSS”, the “polyreactivity (PSR sort gate)” value is recorded as “high polyreactivity”.

As to “QVHLVESGGGLVQAGGSLRLSCDASGSTFLSNAMGWYRQAPGKERELVAAITTSGTSTFYADSVKGRFTISRDTAKNTVYLQMNSLKPEDTAVYCAKDYLPYLHFVAPSTGDYDYWGQGTQVTVSS”, the “polyreactivity (PSR sort gate)” value is reported as “low polyreactivity”.

“QVHLVESGGGLVQAGGSLRLSCDATGFTFQEYAMGWYRQAPGKERELVAAISTSGDSTYYADSVKGRFTISRDNAKNTVYLQMKSLKPEDNAVYYCATAYEDLDAGVLYDYWGQGTQVTVSS”: the “polyreactivity (PSR sort gate)” value is given as “low polyreactivity”.

“QVHLVESGGGLVQAGGSLRLSCHASGSNFYSYGLGSYRQAPGKERELVAAITSSGGGTYYADSVKGGFTISRDNAKNTVYLQMHSLKPEDTAVYYCNADHFSDNSSTQYDYWGQGTQVTVSS”: the “polyreactivity (PSR sort gate)” value is given as “low polyreactivity”.

Consider “QVHLVESGGGLVQAGGSLRLSCPASGRIFDWYAMGCYRQAPGKEREFVAVIDSSGGTYYADSVKGRFTISRDNAKNTVYLQMNSLKPEDTAVYYCAAEYGWWSFPEYDYWGQGTQVTVSS”, for which the “polyreactivity (PSR sort gate)” value is given as “low polyreactivity”.

With “QVHLVESGGGLVQAGGSLRLSCSASGRTFPKYAMGWYRQAPGKERELVAAINKSGGSRYYADSVKGRFTISRDYAKNTVYLQMNSLKPEDTAVYYCAADWRGWSFFRGDDYWGQGTQVTVSS”, the “polyreactivity (PSR sort gate)” value is “high polyreactivity”.

As for “QVHLVESGGGLVQAGGSLRLSCSASGSIFRLNAMGWYRQAPGKERELVAAITWSDSSTYYADSVKGRFTISRDNAKNTVYLQMNSLKPVDTAVYYCAADPQSYKYDYWGQGTQVTVSS”, the “polyreactivity (PSR sort gate)” value is listed as “low polyreactivity”.

Regarding “QVHLVESGGGLVQAGGSLRLSSAASGFIFGKNDMGWYRQAPGKERELVAAITIGGSTNYADSVKGRFTISRDNAKNTVYLQLNSLKPEDTAVYYCAADSSSLYNYWGQGTQVTVSS”, the “polyreactivity (PSR sort gate)” value is recorded as “low polyreactivity”.

For the sequence “QVHLVESGGGLVQAGGSLRLSSAASGLIFYHYAMGWYRQAPGNERELVAAITKRGGSTYYADSVKGRFTISRDNAKNTVYLQINSLKQEDTAVYYCAADGVRYTQSFEMYWGQGTQVTVSS”, the “polyreactivity (PSR sort gate)” value is “high polyreactivity”.

As for “QVHLVESGGGLVQAGGSLRLSSAASGRIFPWNAMGWYRQAPGKERELVAAISFSAGRTYYADSVKGRFTISRDNAKNTVYLQMNSLKPEDTAVYYCNARIGSRGVWTGIIGYEYWGQGTQVTVSS”, the “polyreactivity (PSR sort gate)” value is on record as “low polyreactivity”.

(Values after the nanobody polyreactivity screen of Harvey et al. (2022).)
